Test results: article PMC2606688, “High-fidelity correction of genomic uracil by human mismatch repair activities”

Columns and labels:
[1] = biological target: T1, MSH2 (MutSα subunit);MSH6 (MutSα subunit) (Homo sapiens;Homo sapiens, UniProt P43246;P52701 1-934;1-1360, |); test: EMSA; apparent Kd; homoduplex competitor EDL365/EDL366 in reaction; no Mg2+, 1 mM EDTA; 25 mM Tris pH 7.7, 100 mM KCl, 1 mM EDTA, 1 mM DTT, 7.5% glycerol, 10 fmol labeled duplex in 30 µl, homoduplex competitor, on ice 5 min; 6% native PAGE in 0.5x; details: protein: recombinant;recombinant; tags: ;; copies: 1;1; label: 5'-32P on strand 1 (EDL56); blunt, 30 bp, single U•G mismatch
[2] = biological target: T1, MSH2 (MutSα subunit);MSH6 (MutSα …); test: competition; unlabeled N1 at 50-fold molar excess against labeled N1 (EMSA); 25 mM Tris pH 7.7, 100 mM KCl, 1 mM EDTA, 1 mM DTT, 7.5% glycerol, 10 fmol labeled duplex in 30 µl, homoduplex competitor, on ice 5 min; 6% native PAGE in 0.5x; details: protein: recombinant;recombinant; tags: ;; copies: 1;1; label: 5'-32P on strand 1 (EDL56); blunt, 30 bp, single U•G mismatch

B1: U•G duplex (EDL56/EDL364) (dsDNA)
DNA 1: GCCGAATTTCTAGAATUGAAAGCTTGCTAG
DNA 2: CTAGCAAGCTTTCGATTCTAGAAATTCGGC
modifications: deoxyuridine at position 17 of strand 1, mispaired with G
For B1, the Kd [1] was 70 nM and the binding signal [2] was > 5 fold decrease of probe binding.
